Test results from patent publication US20220195028A1 (Janssen / Centocor, published 2022).

Columns and labels:
recombinant human TNFα [1] = target: T1, recombinant human TNFα (human, UniProt P01375 77-233); test: cell-based or functional assay
recombinant human TNFα [2] = target: T1, recombinant human TNFα; test: 125I-TNFα binding to plate-coated p55-sf2 in presence of varying amounts of mAb in hybridoma supernatant
Experimental: (§1) 50:l of p55-sf2 at 0.5:g/ml in PBS was added to Optiplates to coat the wells during a one-hour incubation at 37° C. Serial dilutions of the eight TNV cell supernatants were prepared in 96-well round-bottom plates using PBS/0.1% BSA as diluent. […] The mixture was preincubated for one hour at RT. The coated Optiplates were washed to remove unbound p55-sf2 and 50:l of the ¹²⁵I-TNFα/cell supernatant mixture was transferred to the Optiplates. After 2 hrs at RT, Optiplates were washed three times with PBS-Tween. 100:l of Microscint-20 was added and the cpm bound determined using the TopCount gamma counter.
A simple binding assay was done to determine whether the eight TNV mAbs contained in hybridoma cell supernatant were capable of blocking TNFα binding to receptor. The concentrations of the TNV mAbs in their respective cell supernatants were first determined by standard ELISA analysis for human IgG.

recombinant human TNFα [3] = target: T1, recombinant human TNFα; test: competition radioligand assay: mAb in hybridoma supernatant preincubated with 5 ng/ml 125I-TNFα, then binding of TNFα to plate-coated p55-sf2 counted as cpm bound
Experimental: Varying amounts of hybridoma cell supernatants containing known amounts of TNV mAb were preincubated with a fixed concentration (5 ng/ml) of ¹²⁵I-labeled TNFα. […] The amount of TNFα that bound to the p55 receptor in the presence of the mAbs was determined after washing away the unbound material and counting using a gamma counter. Although eight TNV mAb samples were tested in these experiments, for simplicity three of the mAbs that were shown by DNA sequence analyses to be identical to one of the other TNV mAbs (see Section 5.2.2) are not shown here. Each sample was tested in duplicate. The results shown are representative of two independent experiments.
as §1

Row | Binder | neutralizing TNFα bioactivity (potency relative to TNV14) (recombinant human TNFα [1]) | fold better at blocking TNF binding to p55-sf2 (against TNV118 and TNV14) (recombinant human TNFα [2]) | IC50 (read off the curve) (recombinant human TNFα [3])
1 | TNV148 (antibody, human IgG1, V domains shown, also called GenTNV148.26.12; C420A) VH: QVQLVESGGGVVQPGRSLRLSCAASGFIFSSYAMHWVRQAPGNGLEWVAFMSYDGSNKKYADSVKGRFTISRDNPKNTLYLQMNSLRAEDTAVYYCARDRGIAAGGNYYYYGMDVWGQGTTVTVSS VL: EIVLTQSPATLSLSPGERATLSCRASQSVYSYLAWYQQKPGQAPRLLIYDASNRATGIPARFSGSGSGTDFTLTISSLEPEDFAVYYCQQRSNWPPFTFGPGTKVDIKR | 4 fold | ~4 fold | ~4 ng/mL
2 | TNV86 (antibody, human IgG1, V domains shown, also called GenTNV86.14.34; C417A) VH: QVQLVESGGGVVQPGRSLRLSCAASGFIFSSYAMHWVRQAPGNGLEWVAFMSYDGSNKKYADSVKGRFTISRDNPKNTLYLQMNSLRAEDTAVYYCARDRGIAAGGNYYYYGMDVWGQGTTVTVSS VL: EIVLTQSPATLSLSPGERATLSCRASQSVYSYLAWYQQKPGQAPRLLIYDASNRATGIPARFSGSGSGTDFTLTISSLEPEDFAVYYCQQRSNWPPFTFGPGTKVDIKR | – | ~4 fold | –
